In patent US20250223359A1 one finds Kd data, which are given here for three molecules.

As a reminder, the Kd is the equilibrium constant for the complex coming apart.

This test has as its target CD3-Fc. Put plainly: SPR (Biacore T200, 25 C); CD3-Fc captured on anti-hFc IgG1 CM5 chip, antibody injected in 1:2 dilution series; 1:1 binding model. Background: SPR reads the build-up and loss of mass on a sensor chip optically.

B1: CD3hi anti-CD3 antibody (antibody, V domains shown)
VH: EVQLVESGGGLVQPGGSLKLSCAASGFTFNTYAMNWVRQASGKGLEWVGRIRSKYNNYATYYADSVKDRFTISRDDSKSTLYLQMNSLKTEDTAVYYCVRHGNFGNSYVSWFAYWGQGTLVTVSS
VL: QAVVTQEPSLTVSPGGTVTLTCRSSTGAVTTSNYANWVQQKPGQAPRGLIGGTNKRAPWTPARFSGSLLGDKAALTLSGAQPEDEAEYFCALWYSNLWVFGGGTKLTVL
On to B1, for which the Kd is 16 nM.

B2: CD3lo anti-CD3 antibody (antibody, V domains shown)
VH: EVQLVESGGGLVQPGGSLKLSCAASGFTFNTYAMNWVRQASGKGLEWVGRIRSKYNNYATYYADSVKDRFTISRDDSKSTAYLQMNSLKTEDTAVYYCVRHGNFGNSYVSWFAYWGQGTLVTVSS
VL: QAVVTQEPSLTVSPGGTVTLTCRSSTGAVTTSNYANWVQQKPGQAPRGLIGGTNKRAPWTPARFSGSLLGDKAALTLSGAQPEDEAEYFCALWYSNLWVFGGGTKLTVL
The molecule B2 registered a Kd of 48 nM.

B3: CD3med anti-CD3 antibody (antibody, V domains shown)
VH: EVQLVESGGGLVQPGGSLKLSCAASGFTFNTYAMNWVRQASGKGLEWVGRIRSKYNNYATYYADSVKDRFTISRDDSKNTAYLQMNSLKTEDTAVYYCVRHGNFGNSYVSWFAHWGQGTLVTVSS
VL: QAVVTQEPSLTVSPGGTVTLTCGSSTGAVTSSNYANWVQQKPGQAPRGLIGGTNKRAPWTPARFSGSLLGGKAALTLSGAQPEDEAEYYCALWYSNLWVFGGGTKLTVL
For the molecule B3, the Kd stood at 30 nM.
